Laboratory results reported in patent publication US20190359653A1 (Genentech, published 2019).

Key:
Test in all cases: cell-based or functional assay
[1] = biological target: T1, FZD7 receptor of HEK293-TB cells (human, UniProt O75084 33-574)
[2] = biological target: T1, FZD7 receptor of HEK293-TB cells; remark: listed apart in the source
[3] = biological target: T1, FZD7 receptor of HEK293-TB cells; remark: listed apart in the source

Question: Which “IC50, Wnt1-stimulated β-catenin signaling, HEK293-TB cells transfected with 5 ng plasmid (FIG. 2C)” value [1] does the source give for Ac-LPSDDLEFWCHVMY-NH2 [Fz7-21] here?
Answer: The value was 1090 nM.

Question: And the “IC50, Wnt1-stimulated β-catenin signaling, HEK293-TB cells transfected with 25 ng plasmid (FIG. 2C)” value [1]?
Answer: Its value is 2660 nM.

Question: And the “IC50, Wnt3a-stimulated β-catenin signaling, HEK293-TB cells transfected with 5 ng pCDNA3.2-Wnt3a (FIG. 2B)” value [1]?
Answer: The value was 330 nM.

Question: And the “IC50, Wnt3a-stimulated β-catenin signaling, HEK293-TB cells transfected with 25 ng pCDNA3.2-Wnt3a (FIG. 2B)” value [1]?
Answer: Its value is 419 nM.

Question: What about the “IC50, Wnt3a-stimulated β-catenin signaling, HEK293-TB cells, recombinant mWnt3a 50 ng/mL (FIG. 2A)” value [1] of the same binder?
Answer: The value was 93.7 nM.

Question: What about the “IC50 (µM), Wnt3a-mediated β-catenin signaling, TOPbrite reporter in HEK293-TB cells (50 ng/mL mWnt3a)” value [2] of the same binder?
Answer: Its value is 0.1 µM.

Question: And the “IC50 (nM), TOPbrite reporter assay in HEK293-TB cells stimulated with mWnt3a (50 ng/mL)” value [3]?
Answer: Its value is 465 nM.

Question: And the “Reduction in fold potency vs. dimer” value [3]?
Answer: The value was 42 fold.
